Experimental findings from US20160287696A1, “PAN POLLEN IMMUNOGENS AND METHODS AND USES FOR IMMUNE RESPONSE MODULATION” (LA JOLLA INSTITUTE FOR ALLERGY AND IMMUNOLOGY, priority 2013, published 2016) are described below.

The experiment concerns cultured PBMCs of the allergic donors. Nature of the experiment: ELISPOT of IL-5 or IFNg production by cultured PBMCs of TG allergic donors in response to peptide. Type of experiment: cell-based, human. As to conditions: for NTGA's containing at least one T cell epitope, Th+ (Col 2): NTGA number given = criterion met, TG allergic donors n=20; for No of PG+ & th+ peptides per NTGA / No of PP & Th+ peptides per NTGA: Table 6; for No of PG+ & th+ peptides per NTGA: PG+ peptides recognized by T cells of grass allergic donors (n=20); for No of PP & Th+ peptides per NTGA: PP peptides recognized by T cells of grass allergic donors (n=20); for # Th+: Table 7, peptides per NTGA recognized by T cells of grass allergic donors (n=20). An excerpt:
Table 1 indicates for each of the 397 PG+ peptides in which non-grass pollen species a matching peptide with either less than 3, less than 2 or zero mismatches are found. The number of TG grass allergic donors (n=20) with an in vitro T cell response to the TG peptide sequence is also shown.
A set of 93 proteins from Timothy grass (TG) pollen and the assembly of 822 peptides (15 mers) predicted to promiscuously bind HLA class II molecules shown in Table 9 and the immune reactivity in allergic donors have been reported in PCT application WO 2013/119863. […] Immune reactivity was determined by the production of IL-5 or IFNg from cultured PBMCs of the allergic donors in response to stimulation with a peptide and IL-5 and IFNg were measured by ELISPOT as described in Oseroff C et al, 2010.
In short, T cell immune reactivity was determined using PBMCs isolated from study participants and stored in liquid nitrogen until further use. For experimental testing, PBMCs were thawed and expanded in vitro with TG pollen extract (50 μg/mL) or the peptide pool ([…]). The TG extract and peptide pools had each been previously titrated to determine optimal stimulation concentrations.
Cytokine production by cultured PBMCs in response to antigen stimulation was measured by ELISPOT. Cells (1×10^5 cells/well) were plated and incubated with peptide (10 μg/mL), the peptide pool (5 μg/mL), or the TG extract (50 μg/mL). Phytohaemagglutinin (10 μg/mL) and medium alone were used as positive and negative controls, respectively. Samples were considered to produce a cytokine if 100 spot-forming cells (SFCs)/10^6 PBMCs were detected, with P .05 and a stimulation index of 2 or more. Criteria for individual peptides were the same except that a minimum of 20 SFCs were required for a sample to be counted as positive.
Table 3 lists the 397 PG+ peptides and indicates for each non-grass pollen species whether a matching peptide with either less than 3, less than 2 or zero mismatches could be detected. The immune reactivity of the TG peptide was assessed as the number of TG grass allergic donors (n=20) having in vitro T cell response against the TG peptide.

B1: NTGA 10: Phl p wild type sequence, Table 2 (protein)
chain: MVFSVTKKDTKPFDGQKPGTSGLRKKVTVFQQPHYLANFVQSTFNALPADQVKGATIVVSGDGRYFSKDAVQIITKMAAANGVRRVWVGQDSLLSTPAVSAIIRERIAADGSKATGAFILTASHNPGGPTEDFGIKYNMGNGGPAPESVTDKIFSNTTTITEYLIAEDLPDVDISALGVTTFTGPEGPFDVDVFDSATDYIKLMKTIFDFESIKKLLASPKFSFCFDGLHGVAGAYAKRMFVDELGASESSLLNCVPKEDFGGGHPDPNLTYAKELVERMGLGKSSSNVEPPEFGAAADGDADRNMVLGKRFFVTPSDSVAIIAANAVQSIPYFASGLKGVARSMPTSAALDVVAKNLNLKFFEVPTGWKFFGNLMDAGMCSVCGEESFGTGSDHIREKDGIWAVLAWLSIIAYKNKDNLGGDKLVSVEDIVLQHWATYGRHYYTRYDYENVDAEAAKELMANLVKMQSALSDVNKLIKEIQPDVAEVVSADEFEYKDPVDGSVSKHQGIRYLFGDGSRLVFRLSGTGSVGATIRIYIEQYEKDSSKTGRESSDALSPLVDVALKLSKIKEYTGRSAPTVIT
modifications: Phleum Pratense
For B1, the “NTGA's containing at least one T cell epitope, Th+ (Col 2)” value (“NTGA's containing” below) amounted to 10; the “No of PG+ & th+ peptides per NTGA” value is reported as 3; the “No of PP & Th+ peptides per NTGA” value is on record as 0; the “# Th+” value is 0.

B2: NTGA 9: Phl p wild type sequence, Table 2 (protein)
chain: MAQLQETYACSPATERGRGILLGGDAKTDTIVYCAGRTVFFRRLDAPLDAWTYTEHAYPTTVARISPNGEWVASADVSGCVRVWGRNGDRALKAEFRPISGRVDDLRWSPDGLRIVVSGDGKGKSLVRAFMWDSGSTVGDFDGHSKRVLSCDFKPTRPFRIVTCGEDFLANYYEGPPFKFKHSIRDHSNFVNCIRYSPDGSKFITVSSDKRGLIYDGKTGDKIGELSSEDSHTGSIYAVSWSADSKQVLTVSADKTAKVWDIMEDASGKVNRTLVCTGIGGVDDMLVGCLWQNDHLVTVSLGGTFNVFSASNPDKEPVSFAGHLKTVSSLTYFPQSNPRTMLSTSYDGVIIRWIQGVGYGGRLIRKNNTQIKCFVAAEEELITSGYDNMVFRIPLNGDQCGDAESVDVGGQPNALNIAVQQPEFALITTDSAIVLLHKSTVTSTTKVSYTITSSAVSPDGTEAIVGAQDGKLRIYSISGDTLTEEAVLERHRGAITSIHYSPDVSMFASADANREAVAWDRATREIKLKNMLFHTARINCLAWSPDSRLVATGSIDTCAIIYDVDKPASSRITIKGAHLGGVHGLTFADNDTLVTAGEDACVRVWKLV
modifications: Phleum Pratense
On to B2, for which the “NTGA's containing” value is given as 9; the “No of PG+ & th+ peptides per NTGA” value was 3; the “No of PP & Th+ peptides per NTGA” value turned out to be 1; the “# Th+” value is reported as 0.

B3: NTGA 4: Phl p wild type sequence, Table 2 (protein)
chain: YIKLMKTIFDFESIKKLLASPKFSFCFDGLHGVAGAYAKRMFVDELGASESSLLNCVPKEDFGGGHPDPNLTYAKELVERMGLGKSSSNVEPPEFGAAADGDADRNMVLGKRFFVTPSDSVAIIAANAVQSIPYFASGLKGVARSMPTSAALDVVAKNLNLKFFEVPTGWKFFGNLMDAGMCSVCGEESFGTGSDHIREKDGIWAVLAWLSIIAYKNKDNLGGDKLVSVEDIVLQHWATYGRHYYTRYDYENVDAEAAKELMANLVKMQSALSDVNKLIKEIQPDVAEVVSADEFEYKDPVDGSVSKHQGIRYLFGDGSRLVFRLSGTGSVGATIRIYIEQYEKDSSKTGRESSDALSPLVDVALKLSKIKEYTGRSAPTVIT
modifications: Phleum Pratense
For the molecule B3, the “NTGA's containing” value is recorded as 4; the “No of PG+ & th+ peptides per NTGA” value is listed as 4; the “No of PP & Th+ peptides per NTGA” value turned out to be 3; the “# Th+” value is recorded as 0.

B4: NTGA 29: Phl p wild type sequence, Table 2 (protein)
chain: MASEKHFKYVILGGGVAAGYAAREFAKQGVQPGELAIISKESVAPYERPALSKGYLFPQNAARLPGFHTCVGSGGEKLLPEWYTEKGIELILSTEIVKADLASKTLTSAAGATFTYETLLIATGSSTIKLTDFGVQGAEANNILYLRDINDADKLVAAMQAKKDGKAVVVGGGYIGLELSAALKLNNFDVTMVYPEPWCMPRLFTAGIAHFYEGYYASKGINIVKGTVASGFDADANGDVAVVKLKDGRVLDANIVIVGVGGRPLTGLFKGQVDEEKGGLKTDTFFETSVAGVYAIGDVASFPMKLYNEPRRVEHVDHARKSAEQAVKAIKAKESGETVAEYDYLPYFYSRSFDIAWQFYGDNVGESVLFGDNDPAAAKAKFGTYWVKDGKVVGVFLEGGSADENQAIAKVARAQPLVAANLGELGKEGLDFAAKI
modifications: Phleum Pratense
As for B4, the “NTGA's containing” value worked out at 29; the “No of PG+ & th+ peptides per NTGA” value came to 1; the “No of PP & Th+ peptides per NTGA” value is given as 1; the “# Th+” value turned out to be 0.

B5: NTGA 11: Phl p wild type sequence, Table 2 (protein)
chain: MATSWTLPDHPTLPKGKTVAVIVLDGWGEASADQYNCIHRAETPVMDSLKNGAPEKWTLVKAHGTAVGLPSDDDMGNSEVGHNALGAGRIFAQGAKLVDAALASGKIWEAEGFNYIKESFAEGTLHLIGLLSDGGVHSRLDQVQLLVKGASERGAKRIRLHILTDGRDVLDGSSVGFVETLENDLAQLREKGVDAQVASGGGRMYVTMDRYENDWDVVKRGWDAQVLGEAPYKFKSALEAVKTLRAEPKANDQYLPAFVIVDESGKSVGPIVDGDAVVTFNFRADRMVMLAKALEFADFDKFDRVRVPKIKYAGMLQYDGELKLPNKFLVSPPLIERTSGEYLVKNGVRTFACSETVKFGHVTFFWNGNRSGYFDETKEEYIEIPSDSGITFNEQPKMKALEIAEKTRDAILSGKFDQVRINLPNGDMVGHTGDIEATVVACKAADEAVKIVLDAVEQVGGIYLVTADHGNAEDMVKRNKSGQPALDKSGSIQILTSHTLQPVPVAIGGPGLHPGVKFRSDINTPGLANVAATVMNLHGFQAPDDYETTLIEVAD
modifications: Phleum Pratense
For the molecule B5, the “NTGA's containing” value is recorded as 11; the “No of PG+ & th+ peptides per NTGA” value worked out at 5; the “No of PP & Th+ peptides per NTGA” value turned out to be 1; the “# Th+” value was determined as 0.

B6: NTGA 1: Phl p (Timothy grass pollen) wild type sequence, Table 2 (protein)
chain: MAATIQSVKARQIFDSRGNPTVEVDVCCSDGTFARAAVPSGASTGVYEALELRDGGSDYLGKGVLKAVDNVNSIIGPALIGKDPTEQTELDNFMVHQLDGTKNEWGWCKQKLGANAILAVSLAVCKAGALVKKIPLYQHIANLAGNKQLVLPVPAFNVINGGSHAGNKLAMQEFMILPTGASSFKEAMKMGVEVYHNLKSVIKKKYGQDATNVGDEGGFAPNIQENKEGLELLKTAIEKAGYTGKVVIGMDVAASEFYGEKDQTYDLNFKEENNDGSQKISGDSLKNVYKSFVSEYPIVSIEDPFDQDDWVHYAKMTEEIGEQVQIVGDDLLVTNPTRVAKAIAEKSCNALLLKVNQIGSVTESIEAVKMSKRAGWGVMTSHRSGETEDTFIADLAVGLSTGQIKTGAPCRSERLAKYNQLLRIEEELGAAAVYAGLKFRAPVEPY
modifications: Phleum Pratense
Take B6: the “NTGA's containing” value is recorded as 1; the “No of PG+ & th+ peptides per NTGA” value is given as 5; the “No of PP & Th+ peptides per NTGA” value is on record as 4; the “# Th+” value is listed as 0.

B7: NTGA 26: Phl p wild type sequence, Table 2 (protein)
chain: GVFTDKDKAAAHMKGGAKKVVISAPSKDAPMFVVGVNEDKYTSDVNIVSNASCTTNCLAPLAKIINDNFGIVEGLMTTVHSITATQKTVDGPSSKDWRGGRAASFNIIPSSTGAAKAVGKVLPELNGKLTGMSFRVPTVDVSVVDLTVRIEKAASYEDIKKAIKAASEGNLKGIMGYVEEDLVSTDFIGDSRSSIFDAKAGIALNDNFVKLVSWYDNEWGY
modifications: Phleum Pratense
For the molecule B7, the “NTGA's containing” value stood at 26; the “No of PG+ & th+ peptides per NTGA” value is 1; the “No of PP & Th+ peptides per NTGA” value was determined as 1; the “# Th+” value was 0.
